The test system of data set [1] is MS2 coat protein. Put plainly: apparent KD of MS2 coat protein, switch ON state; designed switch direction (-1 OFF switch, 1 ON switch): 1; higher = weaker reporter binding. Conditions: FMN input: 0 or 200 uM; Eterna round: R93 (includes R88 designs). The gist of the method: (§1)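 Binding of SNAP-549-labelled MS2 coat protein was measured on designed RNA switches transcribed on-chip from Illumina sequencing clusters. The protein rose in twofold steps from 0.7 or 1.5 nM to 3 µM, with 0.8–1.5 h per step early on and 10–20 min per step later, in 100 mM Tris-HCl pH 7.5, 80 mM KCl, 4 mM MgCl2, without or with constant ligand. Each design's apparent KD is the median of fits to its normalised cluster binding curves.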

For data set [2], the system named is MS2 coat protein. The data set can be described thus: apparent KD of MS2 coat protein, switch OFF state (with FMN for OFF switches, without FMN for ON switches); designed switch direction (-1 OFF switch, 1 ON switch): 1; higher = weaker reporter binding. As to conditions: FMN input: 0 or 200 uM; Eterna round: R93 (includes R88 designs). A digest of the protocol: as §1

As for “AAAAACAUGGUGCAGGAUAUAUUAAUAGUCACAUGAGGAUCACCCAUGUUCAUAUAUAUGAACGAGUAGAAGGGCGAUGAAAAAA [Mat - Same state - Malcolm Mod - D110]”, the figures for the “apparent KD of MS2 coat protein” value in data set [1] and in data set [2] were 181 nM and 541 nM, respectively.
As to “AAAACACAUGAGGAUCACCCAUGUAAAAACAUGAGAGGAUAUGCAUGGAAAACAUGCUAUGCAGAAGGCUCAUGUG [SS1 - 3]”, the results for the “apparent KD of MS2 coat protein” value in data set [1] and in data set [2] were 23.2 nM and 34.6 nM, respectively.
For “AAAACACAUGAGGAUCACCCAUGUAAAAACAUGGGAGGAUAUGCAUGAAAAACAUGCUAUGCAGAAGGCUCAUGUG [SS1 - 2]” the same measures were 29 nM and 99.1 nM.
As for “AAAACACAUGAGGAUCACCCAUGUAGAAAUACUGGAGGAUAUGCUAAAACGAAAGACAAUGUAGAAGGCCGAAAAG [saturn 11]”, the “apparent KD of MS2 coat protein” value was 71.6 nM in data set [1] and 208 nM in data set [2].
For “AAAAUACAUGAGGAUCACCCAUGUGAAAAUAUGGGAGGAUAUACCGAAAAAAAAAAAACGGUAGAAGGCCCAAAAA [SS! 1 MT 7]” the same measures were 18.7 nM and 43.5 nM.
For “AAAAUACAUGAGGAUCACCCAUGUGAGAAAAACGCAGGAUAUGCCCGAAAAAAAAGGCGGGCAGAAGGGUGAAAAA [SameState1-II]” the same measures were 35.5 nM and 90.4 nM.
In the case of “AAACCACAUGAGGAUCACCCAUGUAAAAUAAUGGGAGGAUAUACUAGAAGAAACAAAAUAGUAGAAGGCUCAAAAA [75%, Ex sub1, 34]”, the “apparent KD of MS2 coat protein” value in data set [1] turned out to be 28.2 nM; in data set [2] it was 97.3 nM.
Regarding “AAACCACAUGAGGAUCACCCAUGUAGAAAUAUGGGAGGAUAUACAAAGACGAAAGUCAAAGUAGAAGGCCUAAAAG [77%, Mat - Mod of Eli, 5]”, the results for the “apparent KD of MS2 coat protein” value in data set [1] and in data set [2] were 31.4 nM and 97.5 nM, respectively.
For “AAACUGGAGGACAAGGAUAUGUGCUCUACGACAUGAGGAUCACCCAUGUGAGACGUAGUAGUGAAACAGAAGGUGUCCUAUUGUU [Qulece]” the same measures were 11.6 nM and 27.4 nM.
With “AAAGAAAAACUAGAGGAUAUCUAGAUGAUAACAUGAGGAUCACCCAUGUGAAGAAAGGAAUAUAGGGAGAAGGCUAGAAGAAAAA [JL Nando mod 20]”, the figures for the “apparent KD of MS2 coat protein” value in data set [1] and in data set [2] were 21.8 nM and 28.6 nM, respectively.
Take “AAAGACGUGGCGUAGGAUAUACUAAUAUUCACAUGAGGAUCACCCAUGUUCAUAUAUAUGAACGAGUAGAAGGACGACGAAAAAA [SameState2 Malc#1]”: the “apparent KD of MS2 coat protein” value in data set [1] came to 59.3 nM; in data set [2], 120 nM.
For “AAAUAAAGGACUGAGGAUAUACCACAUGAAACAUGAGGAUCACCCAUGUUAAAAAACAAAGGGUGGUAGAAGGCAGUCCACAAAC [Same State 2.5f ( so lets mod hyphema)]”, the “apparent KD of MS2 coat protein” value in data set [1] amounted to 9.26 nM; in data set [2], 12.1 nM.
For “AAAUAAAUGACUGAGGAUAUAUCGAUGUGUACAUGAGGAUCACCCAUGUGUGAAUAAAAAGGGUGGUAGAAGGUAGUCAACAAAC [Mod 17 of Pariah 4 by Hyphema in Round 1]” the same measures were 76.9 nM and 66.7 nM.
For “AAAUAACAUGAGGAUCACCCAUGUCAAAUAAAUCGAGGAUAUGGGCCCGGGUUCCGGGAGCCAGAAGGCGAAAAGA [Teledimaqu]” the same measures were 16.9 nM and 41.6 nM.
As for “AAAUAACAUGAGGAUCACCCAUGUUACGACUUUACAGGAUAUGUGGGUGAAAAUAGCAUGACAGAAGGGUACAGUA [SameState1 Malc#36]”, the “apparent KD of MS2 coat protein” value was found to be 205 nM in data set [1] and 112 nM in data set [2].
Regarding “AAAUAACAUGAGGAUCACCCAUGUUGCAACGAUACAGGAUAUGUGGGUGAAAAUAGCAUGACAGAAGGGUAAUGUA [SameState1 Malc#31]”, the entries for the “apparent KD of MS2 coat protein” value in data set [1] and in data set [2] were 401 nM and 35 nM, respectively.
In the case of “AACAAUCUAUCUGAGGAUAUCAUAAAAAAAACAUGAGGAUCACCCAUGUGCAGGAAAACUGCAUAUGAGAAGGCAGAUAGAUUGA [SS2: 1102]”, the “apparent KD of MS2 coat protein” value came to 8.73 nM in data set [1] and 10.6 nM in data set [2].
In the case of “AACAAUCUAUCUGAGGAUAUCAUGAAAAAGACAUGAGGAUCACCCAUGUACCAGGAAACUGGUUAUGAGAAGGCAGAUAGAUUGA [SS2: 1116]”, the figures for the “apparent KD of MS2 coat protein” value in data set [1] and in data set [2] were 9.32 nM and 14.4 nM, respectively.
In the case of “AACACGCGGGCGCAGGAUAUGUCGCUGGUGACAUGAGGAUCACCCAUGUAUACCAUUGCGGUUGAGCAGAAGGGUGAGAUGCGUG [Beisesanxe]”, the “apparent KD of MS2 coat protein” value in data set [1] turned out to be 15.9 nM; in data set [2], 59.5 nM.
“AACAUACAUGAGGAUCACCCAUGUUAGGUGGGACUAGGAUAUCAAUCGAAAGUGUUAUAAUGAGAAGGAGUAUAAA [JR_SS001_Sub015]”: the entries for the “apparent KD of MS2 coat protein” value in data set [1] and in data set [2] were 127 nM and 209 nM, respectively.
Take “AAGAAACAUGAGGAUCACCCAUGUAAGAUAUACACAGGAUAUGCGAAAAGAAACAAAGAAGCAGAAGGGUGGAAAA [75%, Ex sub1, 10]”: the “apparent KD of MS2 coat protein” value in data set [1] is 14.9 nM; in data set [2], 33.4 nM.
For the sequence “AAGAAACAUGAGGAUCACCCAUGUGAGAAUAACACAGGAUAUGCAAAAGAAAGAAAGAAAGCAGAAGGGUGAAGAA [Mat - Same State 1 - Tesla mod - 53]”, the “apparent KD of MS2 coat protein” value in data set [1] was 23.3 nM; in data set [2], 59.1 nM.
For “AAGAAACAUGAGGAUCACCCAUGUGAUAAUAUGGGAGGAUAUACGAAGACGAAAGUCGAAGUAGAAGGCCUAUGAA [Garnet 42]”, the “apparent KD of MS2 coat protein” value in data set [1] is 40.2 nM; in data set [2], 57.2 nM.
With “AAGAAAGUUUACGAGGAUAUGUUCCGCAGAACAUGAGGAUCACCCAUGUGAACAAGAAAGGCGACGCAGAAGGCGUGAGCAAAGA [Anvedi]”, the “apparent KD of MS2 coat protein” value was found to be 35.9 nM in data set [1] and 105 nM in data set [2].
On to “AAGAAUGUUUACGAGGAUAUGUUCCGCAGAACAUGAGGAUCACCCAUGUGAACAAGAAAGGCGACGCAGAAGGCGUGAGCAAAGA [Laatreve]”, for which the “apparent KD of MS2 coat protein” value was 45.7 nM in data set [1] and 324 nM in data set [2].
Take “AAGACACAUGAGGAUCACCCAUGUCAAGAGAGACGAGGAUAUCUGAAAAAAAAAAAAAAAGGAGAAGGCGUGAAAA [Same State of Confusion]”: the “apparent KD of MS2 coat protein” value in data set [1] was found to be 33.5 nM; in data set [2], 69.3 nM.
For “AAGAGACAUGAGGAUCACCCAUGUAGGAUUAUGGGAGGAUAUACAAAGACGAGAGUCAGAGUAGAAGGCCUAGGAG [salish99-ss1-131(!)]” the same measures were 23.2 nM and 57.4 nM.
Turning to “AAUAAAAAUAGUUAGGAUAUGAGAAUUAAGACAUGAGGAUCACCCAUGUAAUUAAAACAAGUAAAUCAGAAGGGACAGGGUGAAA [JR_SS002_Sub204]”, the “apparent KD of MS2 coat protein” value stood at 99.4 nM in data set [1] and 46 nM in data set [2].
In the case of “AAUAAACAUGAGGAUCACCCAUGUUUUAAUAGUUGAGGAUAUACGGGUGAAAAUAGCAUAGUAGAAGGCGAGUGUA [SameState1 Malc#13]”, the “apparent KD of MS2 coat protein” value was 31.2 nM in data set [1] and 36.8 nM in data set [2].
With “AAUAACAAAAGAAAGGAUAUGCGCACAGGAACAUGAGGAUCACCCAUGUGCCGCCAAGGCGGAUAGCAGAAGGUUCACACGCAUA [Default title]”, the “apparent KD of MS2 coat protein” value worked out at 19.4 nM in data set [1] and 20.1 nM in data set [2].
Regarding “AAUAAUUAUAACGAGGAUAUCCGUAAUAAGACAUGAGGAUCACCCAUGUAAUAAGGGUAAAUAAAGGAGAAGGCGUAGGGUGAAA [JR_SS002_Sub002]”, the “apparent KD of MS2 coat protein” value in data set [1] was found to be 44.3 nM; in data set [2] it was 61.1 nM.
Consider “AAUAAUUAUACGAAGGAUAUCGGUAAUUAGACAUGAGGAUCACCCAUGUAAUAUGGUUAAAUAAUCGAGAAGGUCGAGGGUGAAA [JR_SS002_Sub503]”, for which the “apparent KD of MS2 coat protein” value worked out at 55.3 nM in data set [1] and 42.2 nM in data set [2].
“AAUAGGAAGAGAGAGGAUAUCCAAAGGAAAACAUGAGGAUCACCCAUGUAAAAGGUAGGAAAUUGGGAGAAGGCUCAAGAGAGAG [salish99-ss2-073]”: the “apparent KD of MS2 coat protein” value in data set [1] was 9.55 nM; in data set [2], 39.9 nM.
The corresponding values for “AAUAUACAUGAGGAUCACCCAUGUUUUAAUAGCUGAGGAUAUACGGGUGAAAAUAGCAUAGUAGAAGGCGGGUGUA [SameState1 Malc#9]” are 92.2 nM and 80 nM.
As to “AAUAUACAUGAGGAUCACCCAUGUUUUGGUGUAUGAGGAUAUAAAAAAAAUUAAAUAAAAUUAGAAGGCAUAAAUA [JR_SS001_Sub001]”, the entries for the “apparent KD of MS2 coat protein” value in data set [1] and in data set [2] were 49.2 nM and 48.7 nM, respectively.
For “AAUAUAUUAAGUGAGGAUAUCAUAGAAAAAACAUGAGGAUCACCCAUGUGGGAAACCUGGUCGGGUGAGAAGGCACUUAAUAUAU [Samwise Clockwise 29 - Jieux - Same State 2]”, the “apparent KD of MS2 coat protein” value in data set [1] turned out to be 71.4 nM; in data set [2], 704 nM.
The corresponding values for “AAUAUAUUAAGUGAGGAUAUCGAGGAAAAAACAUGAGGAUCACCCAUGUGGGAAACAUGGUAGGGUGAGAAGGUACUUAAUAUAU [Samwise Clockwise 23 - Jieux - Same State 2]” are 218 nM and 220 nM.
On to “AAUGAACAUGAGGAUCACCCAUGUUUUAAUAGUUGAGGAUAUAAGGGUGAAAAUAGCACAUUAGAAGGCGAGUGUA [SameState1 Malc#15]”, for which the “apparent KD of MS2 coat protein” value in data set [1] came to 39.4 nM; in data set [2] it was 38 nM.
